Results as given in patent US20250243261A1.
Where two headings read alike, the source gives them in different places.

Columns and labels:
[1] = target: HA H7 HK16, A/Hong Kong/61/2016(H7N9) (Influenza A virus)
[2] = target: HA H4 Hubei, A/swine/Hubei/06/2009(H4N1) (Influenza A virus)
[3] = target: HA H5 Vietnam, A/Vietnam/1203/2004(H5N1) (Influenza A virus)
[4] = target: HA H2 Japan, A/Japan/305/1957(H2N2) (Influenza A virus)
[5] = target: HA H7 HK17, A/Hong Kong/125/2017(H7N9) (Influenza A virus)
[6] = target: HA H7 HK17, A/Hong Kong/125/2017(H7N9) (Influenza A virus); remark: listed apart in the source
[7] = target: HA H7 HK16, A/Hong Kong/61/2016(H7N9) (Influenza A virus); remark: listed apart in the source
[8] = target: HA H4 Hubei, A/swine/Hubei/06/2009(H4N1) (Influenza A virus); remark: listed apart in the source
[9] = target: HA H7 HK17, A/Hong Kong/125/2017(H7N9) (Influenza A virus); remark: listed apart in the source

Substance | Kd [1] | Kd [2] | also measured
MEDI8852 VH D27F Fab | 9 nM | 0.9 nM | 
MEDI8852 VH P75R Fab | 7.14 nM | 0.779 nM | 
MEDI8852 VL T25A Fab | 16.8 nM | 1.45 nM | 
MEDI8852 VH S44G Fab | 7.03 nM | 0.596 nM | 
MEDI8852 VL T33L Fab | 41 nM | 3.2 nM | 
MEDI8852 VL G55A Fab | 5.11 nM | 0.512 nM | 
MEDI8852 VH E65R-M117Y Fab | 1.7 nM | 0.248 nM | Kd [3]: < 0.001 nM; Kd [4]: < 0.001 nM; Kd [5]: 0.02 nM; fold improvement in Kd vs wildtype [6]: 10 fold; fold improvement in Kd over wildtype [7]: 3.6 fold
MEDI8852 VL L29V Fab | 80 nM | 4.2 nM | 
MEDI8852 UCA VH K58S-V65P IgG (antibody) |  |  | Kd [8]: 80 nM
MEDI8852 VH E65P Fab | 2.33 nM | 0.31 nM | Kd [3]: < 0.001 nM; Kd [4]: < 0.001 nM; Kd [5]: 0.1 nM
MEDI8852 VH E65R Fab | 1.54 nM | 0.32 nM | Kd [3]: < 0.001 nM; Kd [4]: < 0.001 nM; Kd [5]: 0.036 nM
MEDI8852 VL R92D Fab | 26.4 nM |  | 
MEDI8852 VH I24V Fab | 8.58 nM | 0.87 nM | 
MEDI8852 VH M117Y Fab | 4.07 nM | 0.356 nM | 
MEDI8852 VH E65P-M117Y Fab | 2.7 nM | 0.36 nM | Kd [5]: 0.043 nM
MEDI8852 UCA VH K58S-V65P/VL G95P IgG (antibody) |  |  | Kd [9]: 5.6 nM; Kd [8]: 30 nM
MEDI8852 VL G95P Fab | 5.31 nM | 0.802 nM | 
MEDI8852 VH T53I Fab | 10.3 nM | 0.747 nM | 
MEDI8852 VH N74S Fab | 5.98 nM | 0.531 nM | 
